The record followed here is patent US20210046160A1, “Immuno Oncology Combination Therapies With IL-2 Conjugates” (Synthorx, Inc., priority 2019, published 2021).

Common to all, as to assay: cell-based or functional assay
The target in assay [1] is IL-2 receptor signaling complexes on human primary CD8+ T cells and NK cells (human) (UniProt P14784).
Assay [2] concerns the target IL-2 receptor signaling complexes on human primary Treg cells (IL-2 Rα expressing) (human) (UniProt P01589).
In assay [3] the target is IL-2 receptor αβγ on recombinant human U2OS cells further engineered to express the IL-2Rα subunit (PathHunter IL-2 Cytokine Receptor assay) (UniProt P01589).
Assay [4] deals with IL-2βγ receptor complex on recombinant human U2OS cells (PathHunter IL-2 Cytokine Receptor assay) (UniProt P14784).

Sequence of K43_30kD (P60568 other isoform, or with tags, fused parts or gaps limits assumed): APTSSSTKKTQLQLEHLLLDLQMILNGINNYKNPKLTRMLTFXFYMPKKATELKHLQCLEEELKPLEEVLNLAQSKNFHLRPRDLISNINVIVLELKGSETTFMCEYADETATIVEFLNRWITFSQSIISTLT
Sequence of IL-2 receptor signaling complexes on human primary CD8+ T cells and NK cells (human) (P14784 27-551, chain 1 of 2): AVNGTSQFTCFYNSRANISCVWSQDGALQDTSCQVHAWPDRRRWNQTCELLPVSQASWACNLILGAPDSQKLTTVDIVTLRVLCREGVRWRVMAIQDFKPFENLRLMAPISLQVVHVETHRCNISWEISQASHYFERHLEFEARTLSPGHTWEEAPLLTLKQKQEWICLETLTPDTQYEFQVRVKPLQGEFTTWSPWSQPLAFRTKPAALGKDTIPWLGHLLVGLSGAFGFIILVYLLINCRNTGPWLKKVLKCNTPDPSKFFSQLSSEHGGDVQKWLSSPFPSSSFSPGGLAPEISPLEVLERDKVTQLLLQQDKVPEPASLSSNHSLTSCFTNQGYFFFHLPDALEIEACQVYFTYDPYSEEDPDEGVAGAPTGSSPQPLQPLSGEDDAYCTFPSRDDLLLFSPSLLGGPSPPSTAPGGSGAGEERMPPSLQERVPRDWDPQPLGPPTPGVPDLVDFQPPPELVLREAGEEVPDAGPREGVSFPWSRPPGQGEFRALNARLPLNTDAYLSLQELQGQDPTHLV
Sequence of IL-2 receptor signaling complexes on human primary CD8+ T cells and NK cells (human) (P31785 23-369, chain 2 of 2, further chain): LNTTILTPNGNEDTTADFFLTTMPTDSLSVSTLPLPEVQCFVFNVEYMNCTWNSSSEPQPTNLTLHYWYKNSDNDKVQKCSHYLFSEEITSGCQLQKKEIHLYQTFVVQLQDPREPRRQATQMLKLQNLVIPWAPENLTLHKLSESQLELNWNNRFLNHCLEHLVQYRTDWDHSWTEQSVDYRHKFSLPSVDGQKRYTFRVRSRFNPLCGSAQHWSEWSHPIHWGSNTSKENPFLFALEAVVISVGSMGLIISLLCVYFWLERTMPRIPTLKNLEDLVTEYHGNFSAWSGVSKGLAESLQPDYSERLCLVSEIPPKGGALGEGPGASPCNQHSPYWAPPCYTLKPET
Sequence of F42_30kD (P60568 other isoform, or with tags, fused parts or gaps limits assumed): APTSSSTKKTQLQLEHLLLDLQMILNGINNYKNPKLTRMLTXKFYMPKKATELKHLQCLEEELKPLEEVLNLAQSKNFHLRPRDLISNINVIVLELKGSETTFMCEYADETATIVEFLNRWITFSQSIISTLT
Sequence of IL-2 receptor signaling complexes on human primary Treg cells (IL-2 Rα expressing) (human) (P01589 22-272, chain 1 of 3): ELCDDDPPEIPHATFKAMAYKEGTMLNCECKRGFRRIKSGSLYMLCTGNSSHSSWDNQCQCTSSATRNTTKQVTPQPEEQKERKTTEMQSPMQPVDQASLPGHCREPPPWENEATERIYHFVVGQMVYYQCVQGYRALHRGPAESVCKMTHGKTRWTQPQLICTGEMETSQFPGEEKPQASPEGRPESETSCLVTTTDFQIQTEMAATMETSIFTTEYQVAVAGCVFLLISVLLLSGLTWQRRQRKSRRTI
Sequence of IL-2 receptor signaling complexes on human primary Treg cells (IL-2 Rα expressing) (human) (P14784 27-551, chain 2 of 3, further chain): as the sequence (P14784 27-551, chain 1 of 2) above
Sequence of IL-2 receptor signaling complexes on human primary Treg cells (IL-2 Rα expressing) (human) (P31785 23-369, chain 3 of 3, further chain): as the sequence (P31785 23-369, chain 2 of 2, further chain) above
Sequence of K35 (10 kD PEGylated IL-2 conjugate, Table 2) (P60568 other isoform, or with tags, fused parts or gaps limits assumed): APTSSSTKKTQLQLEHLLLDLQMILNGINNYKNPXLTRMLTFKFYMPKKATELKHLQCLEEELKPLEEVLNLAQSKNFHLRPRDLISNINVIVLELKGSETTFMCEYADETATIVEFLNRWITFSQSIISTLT

“K43_30kD (from UniProt P60568 21-153) (ligand)”: in assay [1], the EC50 for pSTAT5 signaling; CD8+ T Cells was 50500 pg/mL and the EC50 for pSTAT5 signaling; NK Cells amounted to 9000 pg/mL. This substance yielded an EC50 for pSTAT5 signaling; Treg Cells in assay [2] of 4800 pg/mL.
As to “Y45* (30 kD PEGylated IL-2 conjugate, Table 2) (from UniProt P60568 21-153) (ligand)”, the EC50 (nM), PathHunter IL-2 Cytokine Receptor assay, αβγ in assay [3] was determined as 0.11 nM. Besides, the EC50 (nM), PathHunter IL-2 Cytokine Receptor assay, βγ in assay [4] stood at 9.06 nM.
With “V69* (30 kD PEGylated IL-2 conjugate, Table 2) (from UniProt P60568 21-153) (ligand)”, the EC50 (nM), PathHunter IL-2 Cytokine Receptor assay, αβγ in assay [3] was found to be 0.083 nM. Besides, the EC50 (nM), PathHunter IL-2 Cytokine Receptor assay, βγ in assay [4] is 9.99 nM.
As for “F42_30kD (from UniProt P60568 21-153) (ligand)”, in assay [1], the EC50 for pSTAT5 signaling; CD8+ T Cells came out at 108000 pg/mL and the EC50 for pSTAT5 signaling; NK Cells was 16400 pg/mL. This substance also had an EC50 for pSTAT5 signaling; Treg Cells in assay [2] of 36900 pg/mL.
Consider “K43 (10 kD PEGylated IL-2 conjugate, Table 2) (from UniProt P60568 21-153) (ligand)”, for which, in assay [3], the EC50 (nM), PathHunter IL-2 Cytokine Receptor assay, αβγ is 0.131 nM. Further, the EC50 (nM), PathHunter IL-2 Cytokine Receptor assay, βγ in assay [4] turned out to be 9.84 nM.
Take “K35 (10 kD PEGylated IL-2 conjugate, Table 2) (from UniProt P60568 21-153) (ligand)”: in assay [4], the EC50 (nM), PathHunter IL-2 Cytokine Receptor assay, βγ was 6.75 nM.
In the case of “R38 (10 kD PEGylated IL-2 conjugate, Table 2) (from UniProt P60568 21-153) (ligand)”, in assay [3], the EC50 (nM), PathHunter IL-2 Cytokine Receptor assay, αβγ worked out at 0.165 nM. In addition, the EC50 (nM), PathHunter IL-2 Cytokine Receptor assay, βγ in assay [4] came out at 4.16 nM.
Take “T41 (10 kD PEGylated IL-2 conjugate, Table 2) (from UniProt P60568 21-153) (ligand)”: the EC50 (nM), PathHunter IL-2 Cytokine Receptor assay, αβγ in assay [3] was determined as 0.0489 nM. Further, the EC50 (nM), PathHunter IL-2 Cytokine Receptor assay, βγ in assay [4] was 6.37 nM.
Consider “F42 (10 kD PEGylated IL-2 conjugate, Table 2) (from UniProt P60568 21-153) (ligand)”, for which the EC50 (nM), PathHunter IL-2 Cytokine Receptor assay, αβγ in assay [3] worked out at 0.515 nM. Further, the EC50 (nM), PathHunter IL-2 Cytokine Receptor assay, βγ in assay [4] stood at 6.09 nM.
